Measured values: patent publication US20250179183A1
“And” between values parts separate entries of the source, which are not always exact repeats. Identical values can stand only once.

How the values were obtained:
[1] = molecular target: SARS-CoV-2 spike N439K variant (pseudovirus RVP-703) (SARS-CoV-2) (UniProt P0DTC2); assay: cell-based or functional assay
[2] = molecular target: SARS-CoV-2 spike South African Δ3 B.1.351 variant (pseudovirus RVP-724) (SARS-CoV-2) (UniProt P0DTC2); assay: cell-based or functional assay

REGN10987 (antibody)
EC50 (pM) Neutralization, pseudovirus [1]: 2260 pM and 2220 pM
EC50 (pM) Neutralization, pseudovirus [2]: 2.48 pM and 2.37 pM
